The record followed here is patent publication US20170342160A1 (CHIOME BIOSCIENCE, published 2017).

Experiment [1] addresses T1, recombinant extracellular domain of human 5T4 (soluble, produced in house) (human, UniProt Q13641 32-355).
T1 construct: extracellular domain; The signal peptide lies within residues 1-355 and is not part of the secreted protein; also called 5T4-ECD; 5T4 recombinant protein
T1 sequence: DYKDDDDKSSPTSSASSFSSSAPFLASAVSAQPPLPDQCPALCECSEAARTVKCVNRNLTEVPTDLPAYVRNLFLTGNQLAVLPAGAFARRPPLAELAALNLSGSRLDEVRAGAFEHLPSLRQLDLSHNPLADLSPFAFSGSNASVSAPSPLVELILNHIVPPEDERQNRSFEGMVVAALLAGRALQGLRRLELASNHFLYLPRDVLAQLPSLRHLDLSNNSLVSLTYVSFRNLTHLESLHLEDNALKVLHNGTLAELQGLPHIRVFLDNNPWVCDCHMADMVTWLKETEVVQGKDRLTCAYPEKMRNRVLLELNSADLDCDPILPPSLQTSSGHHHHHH
Description: ELISA on coated 5T4-ECD. How it is done: (§1) For Affinity to 5T4 target antigen an ELISA with the 5T4 antigen is used. Target antigen, 5T4 extra cellular domain, produced in house is coated to polystyrene flat bottom 96 well microplate and blocked. Tribody/sample dilutions were prepared in TBS with 0.2% w/v powdered milk, added to the plate and incubated. Following wash steps, detection antibody is added to the samples (anti-human Kappa light chain AP; e.g. Sigma, Cat. No. K4377). Bound detection antibody is measured by development of a colorimetric reaction upon addition of p-NPP (Cat-No: N7653, Sigma) and the absorbance quantified on a micro-well plate reader and processed by non-linear regression using graph Pad Prism software.
A general note: In an ELISA, binding on a coated surface is turned into a signal by an enzyme label.

Experiment [2] deals with T2, human 5T4 on 5T4-positive tumour cells (MSTO-211H mesothelioma cell line and other tumour cell lines) (human, UniProt Q13641 32-420).
T2 sequence (looked up): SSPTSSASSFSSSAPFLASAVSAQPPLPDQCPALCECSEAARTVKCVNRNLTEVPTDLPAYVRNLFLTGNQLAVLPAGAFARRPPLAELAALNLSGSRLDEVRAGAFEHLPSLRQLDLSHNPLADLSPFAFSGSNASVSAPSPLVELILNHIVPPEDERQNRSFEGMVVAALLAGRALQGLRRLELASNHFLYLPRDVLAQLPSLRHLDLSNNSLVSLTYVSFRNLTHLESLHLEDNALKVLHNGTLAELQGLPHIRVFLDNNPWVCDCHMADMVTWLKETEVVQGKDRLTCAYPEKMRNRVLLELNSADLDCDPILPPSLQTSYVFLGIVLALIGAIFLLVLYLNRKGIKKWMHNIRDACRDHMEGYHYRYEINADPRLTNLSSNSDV
Description: cell-based or functional assay.

The target in experiment [3] is T2, human 5T4 on 5T4-positive tumour cells …. The experiment is described as follows: FACS titration on MSTO-211H cells. On the procedure:
(§2) To access the binding of anti-5T4 molecules (scFv, Fab and Tribody format) to the human 5T4 domain, the biphasic mesothelioma cell line MSTO-211H (ATCC CRL-2081) was tested by FACS binding assay with direct labelled molecules with Allophycocyanin (APC) by the Lightning-Link® APC kit from Innova Biosciences, following the manufacturer instructions.
(§3) Cells are then washed twice with PBS and binding to cell surface is accessed by flow cytometry using a BD FACsalibur apparatus.

In experiment [4] the target is T1, recombinant extracellular domain of …. The experiment is described as follows: ELISA on 5T4 protein (extracellular domain). How it is done: as §1
Experiment [5] shares this target. The experiment is described as follows: ELISA on recombinant 5T4 extracellular domain. How it is done: as §1
The target in experiment [6] is T3, human CD3 (CD3 receptor complex on T cells) on Jurkat cells and on human PBMC (human, UniProt P07766 23-207).
T3 construct: whole, on cells; The other chains of the complex are not specified; also called human CD3 domain; CD3 epsilon
Description: cell binding titration (Abs 405nm) on human PBMC, donor PBMC#2053.

Experiment [7] deals with T3, human CD3 (CD3 receptor complex on T …). Description: cell binding titration (Abs 405nm) on human PBMC, donor PBMC#5886.
Experiment [8] has the same target. The experiment is described as follows: row 'CD3 binding (KD)'; cellular ELISA on Jurkat T-cells (panel B). On the procedure:
For Affinity to the human CD3 domain, a cell based ELISA with a T-cell lymphoma (CD3+) cell line, Jurkat, was used. Jurkat cells are collected, washed and aliquoted into each well of a round-bottom 96 well microplate. Tribody/sample dilutions were prepared in PBS, added to the cells and incubated. Following wash steps, detection antibody is added to the samples (anti-human Kappa light chain AP; e.g. Sigma, Cat. No. K4377). Bound detection antibody is measured by development of a colorimetric reaction upon addition of p-NPP (Cat-No: N7653, Sigma) and the absorbance quantified on a micro-well plate reader and processed by non-linear regression using graph Pad Prism software.

Experiment [9] addresses T1, recombinant extracellular domain of …. The experiment is described as follows: row '5T4-binding (KD)'; ELISA on 5T4 extracellular domain (panel A). How it is done:
as §1

In experiment [10] the target is T3, human CD3 (CD3 receptor complex on T …). The experiment is described as follows: cell binding titration (Abs 405nm) on human PBMC, donor printed as PBMC49966.
Experiment [11] deals with T2, human 5T4 on 5T4-positive tumour cells …. Description: FACS titration on MSTO-211H cells (row 'FACS' of the inset table 'Method / KD Tb535H (nM)'). How it is done: as §2, §3
Experiment [12] deals with T3, human CD3 (CD3 receptor complex on T …). Description: flow cytometry titration on peripheral blood cells of 3 different donors; peripheral blood cells of 3 different donors; cell-binding titration, KD = 50% binding concentration. (A flow cytometer gives signals particle by particle.)

T3 sequence (P07766 23-207, one chain of several): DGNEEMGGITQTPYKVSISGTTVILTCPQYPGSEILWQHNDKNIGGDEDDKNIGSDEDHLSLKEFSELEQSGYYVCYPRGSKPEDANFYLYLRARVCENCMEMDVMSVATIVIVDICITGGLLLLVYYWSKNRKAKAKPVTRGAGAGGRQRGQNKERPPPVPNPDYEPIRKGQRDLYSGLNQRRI

B1: Tb535H, humanized 5T4xCD3 Tribody fusion protein (Fab(5T4) with C-terminal dsFv(CD3) and dsFv(5T4)) (bispecific antibody)
chain 1: QVQLVQSGAEVKKPGASVKVSCKASGYSFTSYYMHWVKQSPGQGLEWIGRINPNNGVTLYNQKFKDRVTMTRDTSISTAYMELSRLRSDDTAVYYCARSTMITNYVMDYWGQGTLVTVSSASTKGPSVFPLAPSSKSTSGGTAALGCLVKDYFPEPVTVSWNSGALTSGVHTFPAVLQSSGLYSLSSVVTVPSSSLGTQTYICNVNHKPSNTKVDKKVEPKSCDKTHTGPGGGSPGQVQLVQSGAELKKPGASVKVSCKASGYTFTRYTMHWVRQAPGQCLEWMGYINPSRGYTNYNQKFKDKATLTADKSTSTAYMELRSLRSDDTAVYYCARYYDDHYSLDYWGQGTLVTVSSASGGGGSGGGGSGGGGSAGDIQLTQSPSILSASVGDRVTITCRASSSVSYMNWYQQKPGKAPKRWIYDTSKVASGVPYRFSGSGSGTEYTLTISSMQPEDFATYYCQQWSSNPLTFGCGTKVEIKSG
chain 2: not shown
notes: also called Tb535H-1120; Tb-5T4
In the case of B1, the Kd in [1] amounted to 0.9 nM; in experiment [6], 26 nM; in experiment [7] it was 24 nM; in experiment [8], 23 nM; in [9] it was 1.1 nM; in [10], 26 nM. Moreover, the Kd was 4.6 nM in experiment [11] and approximately 25 nM in experiment [12]. Further, the “EC50 of cytotoxicity (MSTO-211H target cells with human PBMC)” value in [2] was 7 pM. Moreover, the “EC50 (read off the curve)” value in [3] is approximately 5 nM; in experiment [4] it was approximately 1 nM; in [5], approximately 1 nM.

B2: dsFv(5T4), humanized VH(5T4) SEQ ID 6 and VL(5T4) SEQ ID 19 in dsFv format (scFv)
scFv: QVQLVQSGAEVKKPGASVKVSCKASGYSFTSYYMHWVKQSPGQCLEWIGRINPNNGVTLYNQKFKDRVTMTRDTSISTAYMELSRLRSDDTAVYYCARSTMITNYVMDYWGQGTLVTVSSASGGGGSGGGGSGGGGSAGDIVMTQSPDSLAVSLGERATINCKASQSVSNDVAWYQQKPGQPPKLLIYYTSSRYAGVPDRFSGSGSGTDFTLTISSLQAEDVAVYYCQQDYNSPPTFGCGTKLEIK
notes: also called dsFvhu5T4; scFv
Take B2: in experiment [1], the Kd amounted to 2.3 nM. Further, in [5], the concentration for a half-maximal effect (EC50 (read off the curve)) was approximately 1 nM.

B3: Fab(5T4), humanized VH(5T4) SEQ ID 6 and VL(5T4) SEQ ID 19 in Fab format (Fab, V domains shown)
VH: QVQLVQSGAEVKKPGASVKVSCKASGYSFTSYYMHWVKQSPGQGLEWIGRINPNNGVTLYNQKFKDRVTMTRDTSISTAYMELSRLRSDDTAVYYCARSTMITNYVMDYWGQGTLVTVSS
VL: DIVMTQSPDSLAVSLGERATINCKASQSVSNDVAWYQQKPGQPPKLLIYYTSSRYAGVPDRFSGSGSGTDFTLTISSLQAEDVAVYYCQQDYNSPPTFGGGTKLEIK
notes: Fab format
For the molecule B3, the Kd in experiment [1] was 2.9 nM. Besides, the “EC50 (read off the curve)” value in experiment [5] was approximately 2 nM.

B4: BiTE format, scFv(5T4)-scFv(CD3) fusion with humanized VH(5T4) SEQ ID 6 and VL(5T4) SEQ ID 19 (bispecific antibody, V domains shown)
VH: QVQLVQSGAEVKKPGASVKVSCKASGYSFTSYYMHWVKQSPGQGLEWIGRINPNNGVTLYNQKFKDRVTMTRDTSISTAYMELSRLRSDDTAVYYCARSTMITNYVMDYWGQGTLVTVSS
VL: DIVMTQSPDSLAVSLGERATINCKASQSVSNDVAWYQQKPGQPPKLLIYYTSSRYAGVPDRFSGSGSGTDFTLTISSLQAEDVAVYYCQQDYNSPPTFGGGTKLEIK
notes: The molecule is a single polypeptide, scFv(5T4)-scFv(CD3); also called scFv-scFv format
Turning to B4, the Kd in experiment [1] was 2 nM.

B5: IgG(5T4), humanized VH(5T4) SEQ ID 6 and VL(5T4) SEQ ID 19 in IgG format (antibody, V domains shown)
VH: QVQLVQSGAEVKKPGASVKVSCKASGYSFTSYYMHWVKQSPGQGLEWIGRINPNNGVTLYNQKFKDRVTMTRDTSISTAYMELSRLRSDDTAVYYCARSTMITNYVMDYWGQGTLVTVSS
VL: DIVMTQSPDSLAVSLGERATINCKASQSVSNDVAWYQQKPGQPPKLLIYYTSSRYAGVPDRFSGSGSGTDFTLTISSLQAEDVAVYYCQQDYNSPPTFGGGTKLEIK
notes: also called IgG1(5T4)
B5: the Kd in experiment [1] was determined as 0.7 nM.

B6: Tb535C, chimeric 5T4xCD3 Tribody fusion protein based on murine 5T4 binders (bispecific antibody)
chain 1: EVQLQQSGPDLVKPGASVKISCKASGYSFTGYYMHWVKQSPGKGLEWIGRINPNNGVTLYNQKFKDKATLTVDKSSTTAYMELRSLTSEDSAVYYCARSTMITNYVMDYWGQGTSVTVSSASTKGPSVFPLAPSSKSTSGGTAALGCLVKDYFPEPVTVSWNSGALTSGVHTFPAVLQSSGLYSLSSVVTVPSSSLGTQTYICNVNHKPSNTKVDKKVEPKSCDKTHTGPGGGSPGQVQLVQSGAELKKPGASVKVSCKASGYTFTRYTMHWVRQAPGQCLEWMGYINPSRGYTNYNQKFKDKATLTADKSTSTAYMELRSLRSDDTAVYYCARYYDDHYSLDYWGQGTLVTVSSASGGGGSGGGGSGGGGSAGDIQLTQSPSILSASVGDRVTITCRASSSVSYMNWYQQKPGKAPKRWIYDTSKVASGVPYRFSGSGSGTEYTLTISSMQPEDFATYYCQQWSSNPLTFGCGTKVEIK
chain 2: SIVMTQTPTSLLVSAGDRVTITCKASQSVSNDVAWYQQKPGQSPKLLISYTSSRYAGVPDRFSGSGYGTDFTLTISSVQAEDAAVYFCQQDYNSPPTFGGGTKLEIKRTVAAPSVFIFPPSDEQLKSGTASVVCLLNNFYPREAKVQWKVDNALQSGNSQESVTEQDSKDSTYSLSSTLTLSKADYEKHKVYACEVTHQGLSSPVTKSFNRGECGPGGGSPGEVQLVQSGPDDVKPGGSVKISCKASGYSFTGYYMHWVKQSPGKCLEWIGRINPNNGVTLYNQKFKDKATLTVDKSSTTAYMELRSLTSEDSAVYYCARSTMITNYVMDYWGQGTLVTVSSASGGGGSGGGGSGGGGSAGDIVMTQTPTSLLVSAGDRVTITCKASQSVSNDVAWYQQKPGQSPKLLISYTSSRYAGVPDRFSGSGYGTDFTLTISSVQAEDAAVYFCQQDYNSPPTFGCGTKLEIKSG
notes: Heterodimer through CH1:CL; also called Tribody based on the murine variable domains
Regarding B6, the Kd was 1 nM in [1], 30 nM in [8] and 0.8 nM in experiment [9]. For the same molecule, the “EC50 of cytotoxicity (MSTO-211H target cells with human PBMC)” value in experiment [2] came to 10 pM. Moreover, the “EC50 (read off the curve)” value in experiment [4] was approximately 0.7 nM.

Usually Kd stands for the concentration at which binding is half-saturated. Usually EC50 (read off the curve) stands for the midpoint of the concentration-response curve.
